Test results taken from patent US20030026781A1 (MITOKOR, published 2003).

Assays:
Experiment in all cases: cell-based or functional assay
[1] = target: purified F1-ATPase subcomplex isolated from bovine cardiac samples (bovine, UniProt P19483 44-553; P00829 47-528; P05631 26-297; P05630 23-168; P05632 2-51)
[2] = target: mitochondrial ATP synthase (ETC Complex V) ATPase in rat liver submitochondrial particles (SMP) (rat, UniProt P15999 44-553; P10719 47-529; P35435 1-273; P35434 23-168; P29418 2-51)
[3] = target: purified F0-F1 ATPase complex isolated from bovine cardiac samples (bovine, UniProt P19483 44-553; P00829 47-528; P05631 26-297; P05630 23-168; P05632 2-51)
[4] = target: F0-F1-ATPase in rat ASMPs (alkaline submitochondrial particles) prepared from rat cardiac samples (rat, UniProt P15999 44-553; P10719 47-529; P35435 1-272; P35434 23-168; P29418 2-51)

Row | Binder | IC50, inhibition of ATP hydrolysis by purified F1-ATPase [1] [µM] | IC50, inhibition of oligomycin-sensitive ATPase in rat liver SMP [2] [µM] | IC50, inhibition of ATP hydrolysis by purified F0-F1-ATPase [3] [µM] | IC50, inhibition of F0-F1-ATPase in rat ASMPs [4] [µM]
1 | FGKREKAEEDRYFREKTREQLAALK [IF1(22-46) synthetic polypeptide, amino acids 22-46 of the mature form of rat IF1] | ~1.39 | – | – | –
2 | SIREAGGAFGKREKAEEDRYFREKTREQL [IF1 peptide 14-42 (synthetic peptide fragment of rat IF1)] | – | > 2.6 | – | –
3 | LAALKKHHEDEIDHHSK [IF1(42-58) synthetic polypeptide, amino acids 42-58 of the mature form of rat IF1] | ~0.87 | – | ~0.18 | ~2.5
4 | SIREAGGAFGKREKAEEDRYFREKTREQLA [IF1 peptide 14-43 (synthetic peptide fragment of rat IF1)] | – | > 1.5 | – | –
